The values that follow are results of earlier work, collected in publication PMC6858787.

In general, Kd refers to the concentration at which binding is half-saturated.

This data set addresses CheY (Thermotoga maritima) (UniProt Q56312).
Chain of UniProt Q56312 (Q56312 whole entry): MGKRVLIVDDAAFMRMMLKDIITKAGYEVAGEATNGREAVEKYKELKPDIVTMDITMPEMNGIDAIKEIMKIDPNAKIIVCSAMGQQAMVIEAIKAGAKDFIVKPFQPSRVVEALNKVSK

For “CheA CheY binding domain (from UniProt Q56310)”, the Kd was 200 nM.
